Assay results: patent publication US20240400703A1 (Genmab, published 2024)

T1: recombinant human OX40 fused to a His-tag (Acro Biosystems, cat. no. OX0-H5224) (human, UniProt P43489 29-214)
T1 construct: bought protein; also called sOX40; soluble OX40; not shown: His-tag
T1 sequence: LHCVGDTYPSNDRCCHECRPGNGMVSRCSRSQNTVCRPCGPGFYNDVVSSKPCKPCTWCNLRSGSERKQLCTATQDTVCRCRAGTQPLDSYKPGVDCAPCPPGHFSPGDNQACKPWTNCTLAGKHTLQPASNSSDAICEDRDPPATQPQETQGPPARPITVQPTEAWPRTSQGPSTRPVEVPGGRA

T2: recombinant cynomolgus monkey OX40 (Acro Biosystems, cat. no. OX0-C5220) (cynomolgus monkey (Macaca fascicularis), UniProt P43489 29-214 (human entry))
T2 construct: bought protein; also called Cyno OX40
T2 chain: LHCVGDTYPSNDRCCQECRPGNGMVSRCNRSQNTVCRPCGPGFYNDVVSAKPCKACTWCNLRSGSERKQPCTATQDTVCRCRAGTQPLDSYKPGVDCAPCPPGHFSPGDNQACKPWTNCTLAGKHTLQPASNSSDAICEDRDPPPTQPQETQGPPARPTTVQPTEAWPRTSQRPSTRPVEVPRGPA


What was measured:
[1] = target: T1, recombinant human OX40 fused to a …; assay: BLI cross-block; first Ab (competitor): IgG1-CD134-RG7888
Description: (§1) Amine Reactive 2nd Generation (AR2G) biosensors (Sartorius, cat. no. 18-5092) were activated for 300 s with a solution of 20 mM EDC (N-(3-Dimethylaminopropyl)-N-ethylcarbodiimide hydrochloride; Sartorius, cat. no. 18-1033) and 10 mM s-NHS (N-hydroxysulfosuccinimide sodium salt; Sartorius, cat. no. 18-1067). […] After a baseline measurement in Sample Diluent (Sartorius, cat. no. 18-1104) for 50 s, the AR2G biosensors containing immobilized antibody were loaded for 300 s with human OX40 fused to a His-tag (100 nM diluted in Sample Diluent; Acro Biosystems, cat. no. OX0-H5224). The association (300 s) of a second antibody (10 μg/mL in Sample Diluent) was determined. Sensors were regenerated by three cycles of exposure to 10 mM Glycine (Sigma-Aldrich, cat. no. 15527) buffer pH 2.5 for 5 s followed by neutralization in Sample Diluent for 5 s.
(§2) Data were acquired using Data Acquisition Software v12.0 (Sartorius) and analyzed with Data Analysis HT Software v12.0 (Sartorius). Data traces were corrected by subtraction of a reference curve (Sample Diluent instead of second antibody) in order to correct for the dissociation of antigen from the immobilized first antibody. The Y-axis was aligned to the start of the association step and Savitzky-Golay filtering was applied. The corrected association responses of the second antibodies were plotted in a matrix format (Table 5). Responses ≥0.1 nm were considered non-blocking antibody pairs, while responses <0.1 were considered blocking antibody pairs.

[2] = target: T1, recombinant human OX40 fused to a …; assay: BLI cross-block; first Ab (competitor): IgG1-CD134-49B4-RRE
Description: (§3) Experiments were carried out while shaking at 1,000 RPM and at 30° C.
as §1, §2

[3] = target: T2, recombinant cynomolgus monkey OX40 …; assay: BLI, Ab on AHC sensor, OX40 analyte
Description: (§4) Experiments were carried out while shaking at 1,000 RPM at 30° C. […] Next, AHC sensors were loaded with antibody (1 μg/mL in Sample Diluent) for 600 s. After a baseline measurement in sample diluent (100 s), the association (200 s) and dissociation (1,000 s) of human OX40 (Acro Biosystems, cat. no. OX0-H5224), and cynomolgus monkey OX40 (Acro Biosystems, cat. no. OX0-C5220) was determined using a concentration range of 0.78 to 800 nM with 2-fold dilution steps.
(§5) The theoretical molecular masses of the antigens based on the amino acid sequences were used for calculations. For each antibody, a reference sensor was used which was incubated with Sample Diluent instead of antigen. AHC sensors were regenerated by exposure to 10 mM glycine buffer pH 1.7 for 5 s, followed by neutralization in Sample Diluent for 5 s; both steps were repeated twice. Subsequently sensors were loaded again with antibody for the next cycle of kinetic measurements.
(§6) Data were acquired using Data Acquisition Software v12.0 (Sartorius) and analyzed with Data Analysis Software v12.0 (Sartorius). Data traces were corrected per antibody by subtraction of the reference sensor. The Y-axis was aligned to the last 10 s of the baseline and Interstep Correction alignment to dissociation as well as Savitzky-Golay filtering were applied. Data traces with a response <0.05 nm were excluded from analysis. […] The data was fitted with the 1:1 model using a window of interest for the association of 200 s and dissociation times set at 50 s, 200 s and 1,000 s. The dissociation time was chosen based upon R² value, visual inspection of the curve and at least 5% signal decay during the dissociation step.

[4] = target: T1, recombinant human OX40 fused to a …; assay: BLI, Ab on AHC sensor, OX40 analyte
Description: as §4, §5, §6

[5] = target: T1, recombinant human OX40 fused to a …; assay: BLI cross-block; first Ab (competitor): IgG1-CD134-GBR830
Description: as §3, §1, §2

[6] = target: T1, recombinant human OX40 fused to a …; assay: BLI cross-block; first Ab (competitor): IgG1-CD134-h3C8
Description: as §1, §2

[7] = target: T1, recombinant human OX40 fused to a …; assay: BLI cross-block; first Ab (competitor): IgG1-CD134-ABBV368
Description: as §3, §1, §2

[8] = target: T1, recombinant human OX40 fused to a …; assay: BLI cross-block; first Ab (competitor): IgG1-CD134-11D4
Description: as §1, §2

[9] = target: T1, recombinant human OX40 fused to a …; assay: BLI cross-block; first Ab (competitor): IgG1-CD134-A4453
Description: as §1, §2

[10] = target: T1, recombinant human OX40 fused to a …; assay: BLI cross-block; first Ab (competitor): IgG1-CD134-IBI101
Description: as §1, §2

Row | Binder | association response [1] | association response [2] | Kd [3] | koff [3] | kon [3] | Kd [4] | koff [4] | kon [4] | association response [5] | association response [6] | association response [7] | association response [8] | association response [9] | association response [10]
1 | IgG1-CD134-003-HC6LC2-P329R-E345R (antibody, humanized; human IgG1 with P329R and E345R (Eu numbering), kappa; also called IgG1-CD134-003-HC6LC2-RR) heavy: not shown light: AAVLTQSPSSLSASVGDRVTITCQSSQIVVNNNFLSWYQQKPGKAPKLLIYDASNLASGVPDRFSGSGSGTDFTFTISSLQPEDIATYYCLGGYDDDAENAFGGGTKVEIKRTVAAPSVFIFPPSDEQLKSGTASVVCLLNNFYPREAKVQWKVDNALQSGNSQESVTEQDSKDSTYSLSSTLTLSKADYEKHKVYACEVTHQGLSSPVTKSFNRGEC | 0.65 nm | 0.25 nm | 27 nM | 0.0029 s⁻¹ | 110000 M⁻¹ s⁻¹ | 3.4 nM | 0.00086 s⁻¹ | 250000 M⁻¹ s⁻¹ | 0.19 nm | 0.5 nm | 0.85 nm | 0 nm | 0.31 nm | 0.34 nm
2 | IgG1-CD134-012 (antibody, rabbit-human chimeric IgG1) heavy: not shown light: DIVMTQTPASVEAAVGGTVTIKCQASENIYSSLAWYQQKPGQPPKLLIYRTSTLASGVPSRFKGSGSGTQFTLTISDLESDDAATYYCQSYYHNSGGGYDYGFGGGTEVVAKRTVAAPSVFIFPPSDEQLKSGTASVVCLLNNFYPREAKVQWKVDNALQSGNSQESVTEQDSKDSTYSLSSTLTLSKADYEKHKVYACEVTHQGLSSPVTKSFNRGEC | 0.42 nm | 0.1 nm | – | – | – | 11 nM | 0.0016 s⁻¹ | 140000 M⁻¹ s⁻¹ | 0.16 nm | 0.35 nm | 0.51 nm | 0 nm | 0.22 nm | 0.28 nm
3 | IgG1-CD134-003 (antibody, rabbit-human chimeric IgG1, wild-type Fc; also called parental chimeric antibody) heavy: not shown light: AAVLTQTPSPVSAAVGGTVTIKCQSSQIVVNNNFLSWYQQKPGQPPKLLIYDASNLASGVPDRFSGSGSGTQFTLTISGVQSDDAATYYCLGGYDDDAENAFGGGTEVVVQRTVAAPSVFIFPPSDEQLKSGTASVVCLLNNFYPREAKVQWKVDNALQSGNSQESVTEQDSKDSTYSLSSTLTLSKADYEKHKVYACEVTHQGLSSPVTKSFNRGEC | 0.66 nm | 0.2 nm | 3.5 nM | 0.00096 s⁻¹ | 280000 M⁻¹ s⁻¹ | 1.1 nM | 0.00035 s⁻¹ | 330000 M⁻¹ s⁻¹ | 0.2 nm | 0.46 nm | 0.72 nm | 0.01 nm | 0.26 nm | 0.23 nm
4 | IgG1-CD134-007 (antibody, rabbit-human chimeric IgG1) heavy: not shown light: AQVLTQTPSPVSAAVGGTVTISCQSSESVWNNNWLAWYQQKPGQPPNLLIYEASTLASGVSSRFKGSGSGTQFTLTVSEVQSDDAATYYCQGGYYDSSPIWTFGGGTEVVVKRTVAAPSVFIFPPSDEQLKSGTASVVCLLNNFYPREAKVQWKVDNALQSGNSQESVTEQDSKDSTYSLSSTLTLSKADYEKHKVYACEVTHQGLSSPVTKSFNRGEC | 0.64 nm | 0 nm | 7.1 nM | 0.0018 s⁻¹ | 260000 M⁻¹ s⁻¹ | 2 nM | 0.00075 s⁻¹ | 380000 M⁻¹ s⁻¹ | 0 nm | -0.02 nm | -0.05 nm | 0.15 nm | 0.28 nm | 0 nm
